According to publication PMC2267168, “Competition between Delta and the Abruptex domain of Notch” (BMC Developmental Biology, 2008):
Where two headings read alike, the source gives them in different places.

Tests used:
N11-14:V5:His [1] = molecular target: T1, N11-14:V5:His (Drosophila, UniProt P07207 447-605); assay: ELISA
T1 chain: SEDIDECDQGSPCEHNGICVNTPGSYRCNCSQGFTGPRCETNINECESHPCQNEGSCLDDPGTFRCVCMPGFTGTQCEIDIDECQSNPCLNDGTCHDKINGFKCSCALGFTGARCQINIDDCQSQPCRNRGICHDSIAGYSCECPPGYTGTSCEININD

N11-20:V5:His [2] = molecular target: T2, N11-20:V5:His (Drosophila, UniProt P07207 447-832); assay: ELISA
T2 chain: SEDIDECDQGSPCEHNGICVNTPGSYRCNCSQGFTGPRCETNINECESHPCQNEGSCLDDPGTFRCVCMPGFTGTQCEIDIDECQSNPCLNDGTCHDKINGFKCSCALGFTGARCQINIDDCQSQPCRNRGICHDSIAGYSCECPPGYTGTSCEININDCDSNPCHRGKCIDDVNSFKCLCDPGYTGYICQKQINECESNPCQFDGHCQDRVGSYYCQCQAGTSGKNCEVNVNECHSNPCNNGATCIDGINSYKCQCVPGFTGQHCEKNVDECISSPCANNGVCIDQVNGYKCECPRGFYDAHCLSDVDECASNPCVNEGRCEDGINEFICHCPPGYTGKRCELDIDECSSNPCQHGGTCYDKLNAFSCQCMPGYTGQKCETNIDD

N11-20:V5:His [3] = molecular target: T2, N11-20:V5:His; assay: ELISA
N11-14:V5:His [4] = molecular target: T1, N11-14:V5:His; assay: ELISA
N11-14spl:V5:His [5] = molecular target: T3, N11-14spl:V5:His (Drosophila, UniProt P07207 447-605, I578T); assay: ELISA
T3 sequence: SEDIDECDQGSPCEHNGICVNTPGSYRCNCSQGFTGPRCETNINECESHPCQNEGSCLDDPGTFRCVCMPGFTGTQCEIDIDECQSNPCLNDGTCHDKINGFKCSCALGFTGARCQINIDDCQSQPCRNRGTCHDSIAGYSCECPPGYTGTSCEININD

N11-20:V5:His [6] = molecular target: T2, N11-20:V5:His; assay: ELISA; pH 5.4
N11-20:V5:His [7] = molecular target: T2, N11-20:V5:His; assay: ELISA; pH 7.4
N21-30:Fc [8] = molecular target: T4, N21-30:Fc (Drosophila, UniProt P07207 827-1224); assay: ELISA; competition: 10 ng (2.74 nM) N21-30:Fc or 100 ng (23.2 nM) Dl:Fc on adsorbed N11-20, with increasing amounts of soluble Dl:V5:His or N21-30:V5:His; conditions: both partners purified
T4 construct: also called Abruptex region; EGF repeat 21-30 region of Notch; source: Drosophila Schneider cells, transfected, secreted; purified from conditioned medium (Protein A beads); not shown: Fc (human IgG), C-terminal, kept
T4 sequence (looked up): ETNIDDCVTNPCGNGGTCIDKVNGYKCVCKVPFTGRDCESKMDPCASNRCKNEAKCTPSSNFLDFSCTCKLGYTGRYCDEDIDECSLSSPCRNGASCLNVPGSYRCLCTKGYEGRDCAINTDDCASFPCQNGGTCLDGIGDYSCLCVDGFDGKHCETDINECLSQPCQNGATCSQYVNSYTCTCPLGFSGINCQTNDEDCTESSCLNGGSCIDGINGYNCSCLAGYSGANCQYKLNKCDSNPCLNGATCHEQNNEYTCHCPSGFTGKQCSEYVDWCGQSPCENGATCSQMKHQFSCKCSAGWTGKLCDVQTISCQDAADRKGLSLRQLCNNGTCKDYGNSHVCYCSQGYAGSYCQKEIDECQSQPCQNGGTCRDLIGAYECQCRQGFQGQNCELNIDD

N21-30:V5:His = molecular target: T5, N21-30:V5:His (Drosophila, UniProt P07207 827-1224); assay: as above; conditions: both partners purified
T5 construct: source: Drosophila Schneider cells, transfected, secreted; purified from conditioned medium (ProBond resin)
T5 sequence (looked up): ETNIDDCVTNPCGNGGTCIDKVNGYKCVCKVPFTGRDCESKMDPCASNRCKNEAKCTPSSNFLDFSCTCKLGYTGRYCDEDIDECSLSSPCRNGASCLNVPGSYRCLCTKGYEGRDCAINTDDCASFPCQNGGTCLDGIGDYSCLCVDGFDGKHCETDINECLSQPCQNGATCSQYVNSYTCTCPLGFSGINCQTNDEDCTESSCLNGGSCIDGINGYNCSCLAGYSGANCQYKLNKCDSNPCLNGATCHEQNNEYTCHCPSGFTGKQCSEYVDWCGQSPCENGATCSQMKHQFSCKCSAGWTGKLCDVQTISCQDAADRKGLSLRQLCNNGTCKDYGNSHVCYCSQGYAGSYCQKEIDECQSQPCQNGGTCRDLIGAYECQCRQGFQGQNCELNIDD

N11-14:V5:His [9] = molecular target: T1, N11-14:V5:His; assay: ELISA
N11-14spl:V5:His [10] = molecular target: T3, N11-14spl:V5:His; assay: ELISA; remark: listed apart in the source
N11-20:V5:His [11] = molecular target: T2, N11-20:V5:His; assay: ELISA; 200 ng His-tagged protein adsorbed to a 96-well plate at 4°C overnight, blocked with 3% BSA; purified Fc fusion added in TBS (10 mM Tris-Cl pH 8.0, 150 mM NaCl, 1 mM CaCl2) for 2 h; detected with HRP anti-human IgG; half-maximal binding ('Kd') fitted with Prizm, said not to be a true Kd
N21-30:Fc [12] = molecular target: T4, N21-30:Fc; assay: ELISA; as the plate assay, at pH 7.4 in citric acid/Na2HPO4 or Tris maleate/NaOH buffer in place of Tris pH 8.0; conditions: both partners purified

B1: N21-25:Fc (Fc fusion)
chain: ETNIDDCVTNPCGNGGTCIDKVNGYKCVCKVPFTGRDCESKMDPCASNRCKNEAKCTPSSNFLDFSCTCKLGYTGRYCDEDIDECSLSSPCRNGASCLNVPGSYRCLCTKGYEGRDCAINTDDCASFPCQNGGTCLDGIGDYSCLCVDGFDGKHCETDINECLSQPCQNGATCSQYVNSYTCTCPLGFSGINCQTNDED
B1 was tested, and the Kd (N11-14:V5:His [1]) was 2.77 nM and the Kd (N11-20:V5:His [2]) was 2.79 nM.

B2: N21-30:Fc (Fc fusion)
chain: ETNIDDCVTNPCGNGGTCIDKVNGYKCVCKVPFTGRDCESKMDPCASNRCKNEAKCTPSSNFLDFSCTCKLGYTGRYCDEDIDECSLSSPCRNGASCLNVPGSYRCLCTKGYEGRDCAINTDDCASFPCQNGGTCLDGIGDYSCLCVDGFDGKHCETDINECLSQPCQNGATCSQYVNSYTCTCPLGFSGINCQTNDEDCTESSCLNGGSCIDGINGYNCSCLAGYSGANCQYKLNKCDSNPCLNGATCHEQNNEYTCHCPSGFTGKQCSEYVDWCGQSPCENGATCSQMKHQFSCKCSAGWTGKLCDVQTISCQDAADRKGLSLRQLCNNGTCKDYGNSHVCYCSQGYAGSYCQKEIDECQSQPCQNGGTCRDLIGAYECQCRQGFQGQNCELNIDD
Binder B2 has a Kd (N11-20:V5:His [3]) of 27.5 nM, a Kd (N11-14:V5:His [1]) of 5.42 nM and a Kd (N11-20:V5:His [2]) of 4.5 nM. For the same binder, the Kd (N11-14:V5:His [4]) was 21.3 nM, the Kd (N11-14spl:V5:His [5]) was 28.9 nM and the Kd (N11-20:V5:His [6]) was 34 nM. It also gave a Kd (N11-20:V5:His [7]) of 16.4 nM.

B3: N11-20:V5:His (domain or fragment, Drosophila, UniProt P07207 447-832, looked up)
chain: SEDIDECDQGSPCEHNGICVNTPGSYRCNCSQGFTGPRCETNINECESHPCQNEGSCLDDPGTFRCVCMPGFTGTQCEIDIDECQSNPCLNDGTCHDKINGFKCSCALGFTGARCQINIDDCQSQPCRNRGICHDSIAGYSCECPPGYTGTSCEININDCDSNPCHRGKCIDDVNSFKCLCDPGYTGYICQKQINECESNPCQFDGHCQDRVGSYYCQCQAGTSGKNCEVNVNECHSNPCNNGATCIDGINSYKCQCVPGFTGQHCEKNVDECISSPCANNGVCIDQVNGYKCECPRGFYDAHCLSDVDECASNPCVNEGRCEDGINEFICHCPPGYTGKRCELDIDECSSNPCQHGGTCYDKLNAFSCQCMPGYTGQKCETNIDD
notes: also called EGF repeats 11-20 of the N extracellular domain; source: Drosophila Schneider cells, transfected, secreted; purified from conditioned medium (ProBond resin)
B3: binds (N21-30:Fc [8]); binds (N21-30:V5:His).

B4: Dl:Fc (Fc fusion)
chain: QVHSSGSFELRLKYFSNDHGRDNEGRCCSGESDGATGKCLGSCKTRFRVCLKHYQATIDTTSQCTYGDVITPILGENSVNLTDAQRFQNKGFTNPIQFPFSFSWPGTFSLIVEAWHDTNNSGNARTNKLLIQRLLVQQVLEVSSEWKTNKSESQYTSLEYDFRVTCDLNYYGSGCAKFCRPRDDSFGHSTCSETGEIICLTGWQGDYCHIPKCAKGCEHGHCDKPNQCVCQLGWKGALCNECVLEPNCIHGTCNKPWTCICNEGWGGLYCNQDLNYCTNHRPCKNGGTCFNTGEGLYTCKCAPGYSGDDCENEIYSCDADVNPCQNGGTCIDEPHTKTGYKCHCANGWSGKMCEEKVLTCSDKPCHQGICRNVRPGLGSKGQGYQCECPIGYSGPNCDLQLDNCSPNPCINGGSCQPSGKCICPAGFSGTRCETNIDDCLGHQCENGGTCIDMVNQYRCQCVPGFHGTHCSSKVDLCLIRPCANGGTCLNLNNDYQCTCRAGFTGKDCSVDIDECSSGPCHNGGTCMNRVNSFECVCANGFRGKQCDE
For B4, the Kd (N11-14:V5:His [9]) was 16.6 nM, the Kd (N11-14spl:V5:His [10]) was 23.4 nM and the Kd (N11-20:V5:His [3]) was 25.1 nM. It also gave a Kd (N11-20:V5:His [6]) of 4.58 nM, a Kd (N11-20:V5:His [7]) of 29.8 nM and an EC50 (N11-20:V5:His [11]) of 1.87 nM.

B5: N11-14:V5:His (domain or fragment, Drosophila, UniProt P07207 447-605, looked up)
chain: SEDIDECDQGSPCEHNGICVNTPGSYRCNCSQGFTGPRCETNINECESHPCQNEGSCLDDPGTFRCVCMPGFTGTQCEIDIDECQSNPCLNDGTCHDKINGFKCSCALGFTGARCQINIDDCQSQPCRNRGICHDSIAGYSCECPPGYTGTSCEININD
notes: also called N11-4:V5:His; EGF repeats 11-14; source: Drosophila Schneider cells, transfected, secreted; purified from conditioned medium (ProBond resin)
B5: binds (N21-30:Fc [12]).

B6: N11-14spl:V5:His (domain or fragment, Drosophila, UniProt P07207 447-605, looked up)
chain: SEDIDECDQGSPCEHNGICVNTPGSYRCNCSQGFTGPRCETNINECESHPCQNEGSCLDDPGTFRCVCMPGFTGTQCEIDIDECQSNPCLNDGTCHDKINGFKCSCALGFTGARCQINIDDCQSQPCRNRGTCHDSIAGYSCECPPGYTGTSCEININD
notes: Notch, Drosophila, EGF repeats 11-14 with the I578T change of the split (spl) allele in EGF repeat 14; limits as N11-14, Ser447 to Asp605; also called split mutant; source: Drosophila Schneider cells, transfected, secreted; purified from conditioned medium (ProBond resin)
B6: binds (N21-30:Fc [12]).

B7: N22-27:Fc (Fc fusion)
chain: KMDPCASNRCKNEAKCTPSSNFLDFSCTCKLGYTGRYCDEDIDECSLSSPCRNGASCLNVPGSYRCLCTKGYEGRDCAINTDDCASFPCQNGGTCLDGIGDYSCLCVDGFDGKHCETDINECLSQPCQNGATCSQYVNSYTCTCPLGFSGINCQTNDEDCTESSCLNGGSCIDGINGYNCSCLAGYSGANCQYKLNKCDSNPCLNGATCHEQNNEYTCHCPSGFTGKQCS
In the case of B7, the Kd (N11-14:V5:His [1]) is reported as 12.6 nM.

B8: N26-30:Fc (Fc fusion)
chain: QTNDEDCTESSCLNGGSCIDGINGYNCSCLAGYSGANCQYKLNKCDSNPCLNGATCHEQNNEYTCHCPSGFTGKQCSEYVDWCGQSPCENGATCSQMKHQFSCKCSAGWTGKLCDVQTISCQDAADRKGLSLRQLCNNGTCKDYGNSHVCYCSQGYAGSYCQKEIDECQSQPCQNGGTCRDLIGAYECQCRQGFQGQNCELNIDD
modifications: Fc-dimerised (Fc left out); secreted from S2 cells, O-fucosylation predicted. The forward primer (Q-T-N-D-E-D-C) overlaps the reverse primer ending at Asp1025, so the printed Gln1000 is Gln1020
Binder B8 has a Kd (N11-14:V5:His [1]) of 2.81 nM.
